Reference: a protein production outcome set (Wang et al. 2014)

Assay: label from the status in PepcDB records

Row | Sequence | protein production
1 | MASFYWRIKNEPYQVVECAMRALHFSSRHNKDIALVNLANVLHRAHFPADAAVVVHAALDDSDFFTSYYTLGNIYAMLGEYNHSVLCYDHALQARPGFEQAIKRKHAVLCQQKLEQKLEAQHRSLQRTLNELKEYQKQHDHYLRQQEILEKHKLIQEEQILRNIIHETQMAKEAQLGNHQICRLVNQQHSLHCQWDQPVRYHRGDIFENVDYVQFGEDSSTSSMMSVNFDVQSNQSDINDSVKSSPVAHSILWIWGRDSDAYRDKQHILWPKRADCTESYPRVPVGGELPTYFLPPENKGLRIHELSSDDYSTEEEAQTPDCSITDFRKSHTLSYLVKELEVRMDLKAKMPDDHARKILLSRINNYTIPEEEIGSFLFHAINKPNAPIWLILNEAGLYWRAVGNSTFAIACLQRALNLAPLQYQDVPLVNLANLLIHYGLHLDATKLLLQALAINSSEPLTFLSLGNAYLALKNISGALEAFRQALKLTTKCPECENSLKLIRCMQFYPFLYNITSSVCSGNCHEKTLDNSHDKQKYFDNSQSLDAAEEEPSERGTEEDPVFSVENSGRDSDALRLESTVVEESNGSDEMENSDETKMSEEILALVDEFQQAWPLEGFGGALEMKGRRLDLQGIRVLKKGPRDGVARSSCYGDCRSEDDEATEWITFQVKRVKKPKGDHKKTPGKKVETGQIENGHRYQANLEITGPKVASPGPQGLLDWKTRKVP | failed
2 | MSWSKVKYFFFDTPEEKEAAQYGYEKEQTDMKKQQDPPEQQDVTFPKAQPKQNVVSIETAKQSSKVVLLEPRTYSEAQGIADHLKGRRAVVINLQRMSTDQAVRIVDFLSGTVYAIGGDIQKIGPKTFMCTPENVDIVGAISELFGEEEETNIKRWLEHHHHHH | not failed
3 | MSLRRLLAVFAVVGMVVIAGCAGGIDNGEPATSGVTEQATTTVATTETAAPTGELVVHQLNVGQGSSTLVVGPDGETLLIDTGDWTDDGEDVIAYLESQGVTRIDHLVTSHPDADHIGGHAAVIEHFETNGDGVGAVYDPGIASSSATYEEYLDAVEAHNVPLYRTQAGDSIPMSGATAQILAPPEGYLANEDRNENSIVVHVQFGASSFLLPGDGETASEEYLVDTYGDRLNSTVLVVGHHGSRSSTSAAFLEAVSPRVAVISSAYESQYGHPHEAVLERLAARSIPTYWTATHGTITFTSNGSAVTVATQQDAPTTATELRSGDPVEPGTGGGLVDRLVIPTAGSGTTPITDPDGTTEPAETTSTSTAGRLDLVEIHADAAGDDAENLNGEYITVEHTGASSLDLSGWTLADAAGHSYTIPEGTVLEPGDQLTIYTGSGTDTATELYWGQSSPVWNNGGDTISLRDATGTTVIEETY | failed
4 | MASSLITSAVIVVVLSLVLGSVEQVSGLRHVPKSPKTTDVKHPDFLVTIEPKPTILIPGVGRFLLPPKCKKPFYPYNPVTGAPLTGGGIPSYNGGQGAGPHTQLPGGDDTLVPNPGFEAPTPTIGAGTGSNGQVPPVPLP | failed
5 | MSSDAIETIETYLRPGAWVEDAAGPLYVRLRKRIEQGIDSGLLAKSAPLPAEREIASLTGLSRVTVRRAMQELVDRGIIVQRQGSGSFVADAAPRVEQSLSHLTSFTEDMERRGLNVTSEWLTRGVFIPSPEEVMALALSSGEQVARVARLRRAEGRPMAIERASLPTDILPDPELVSSSLYAVLERDGNRPVRALQRISAVNLGAEDAALLGVEPGTAGLRIIRTSYLPNRRVIEYTRSLYRADAYDFVAELRLGNS | failed
6 | MDAKQLSKRLATVGAFVQPGARVADIGSDHAYLPANLALNHQISYGVAGEVVRGPFENARHEIQKLGLTDRLVARLADGLAAIEPADRIDTVTIAGMGGPLIRHILEQGPTQLAGVQRLVLEPNVGEATVREWLAANQFQIVAERILAEDGHTYEILCADRVDHQVTYTTAEQMFGPFLLAEKSPVFIAKWQRELQRVNAAVAQMQRAKVIPEEQLALAHAKIKLIEGVLTDASK | failed
7 | MSHAKGFKKDYYGGTLMALVGLAAVMAGLQYHTGSLSHMGPGFFPVAVGALLAFVGVLIAVSARNDEPKEDKPSGHGHSHAAPDLRGTVCIVLGTLAFLLFGKYGGMIPATFAIVFISALGDRSNSIKQAFLLSIAMCVIAAVVFSWALQLQLPMFTWGA | failed
